According to paper doi:10.1101/2025.04.09.647959:
Read-outs that look alike come from different tables or passages of the source.

Experiments:
[1] = target: T1, human CD40 ligand (hCD40L) (Homo sapiens, UniProt P29965 113-261); assay: BLI
[2] = target: T1, human CD40 ligand (hCD40L); assay: BLI; remark: listed apart in the source

T1 sequence (P29965 113-261): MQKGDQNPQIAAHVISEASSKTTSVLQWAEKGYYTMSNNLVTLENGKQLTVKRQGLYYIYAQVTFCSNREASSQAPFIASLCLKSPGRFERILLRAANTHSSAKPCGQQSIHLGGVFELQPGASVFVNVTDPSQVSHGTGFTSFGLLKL

Binder | binding result [1] | binding result [2]
hCD40L-1 (LNA-T, 2'F-C) (XNA, all T are LNA-T; all C are 2'F-C; A and G ribo) DNA: GGGAGGAGGAAGCGGAAAAAGCAGGTGTGAAAAGGACGTCAAACGACGTGACACACAGACGACACGCCCGA | binds | –
hCD40L-4 (LNA-T, 2'F-C) (XNA, all T are LNA-T; all C are 2'F-C; A and G ribo) DNA: GGGAGGAGGAAGCGGACGATGAACAAGTTGAAAAGGAATTTAAACGAATTAACAACAGACGACACGCCCGA | – | binds
